According to US20180073000A1:
Changes are numbered by the printed parent chain.

Legend:
[1] = molecular target: T1, C4-N6 modified GALNS (Homo sapiens)
T1 sequence: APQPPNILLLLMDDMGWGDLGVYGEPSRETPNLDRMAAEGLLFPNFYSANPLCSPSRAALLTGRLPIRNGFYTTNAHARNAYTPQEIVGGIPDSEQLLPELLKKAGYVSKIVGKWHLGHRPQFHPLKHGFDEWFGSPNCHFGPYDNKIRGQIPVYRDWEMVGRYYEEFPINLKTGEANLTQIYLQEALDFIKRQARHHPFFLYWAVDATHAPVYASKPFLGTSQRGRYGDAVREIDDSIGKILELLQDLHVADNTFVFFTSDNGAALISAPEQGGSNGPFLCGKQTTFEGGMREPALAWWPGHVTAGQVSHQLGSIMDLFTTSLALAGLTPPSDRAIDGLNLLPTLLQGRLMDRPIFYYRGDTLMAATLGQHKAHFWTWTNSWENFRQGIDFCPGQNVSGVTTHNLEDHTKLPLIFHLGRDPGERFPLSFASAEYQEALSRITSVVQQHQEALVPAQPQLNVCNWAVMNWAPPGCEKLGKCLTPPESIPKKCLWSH

[2] = molecular target: T2, E8-N13 modified GALNS (Homo sapiens)
T2 sequence: T1 sequence with I148A, G150P, Q151N, Y203I, A208L, A211L

[3] = molecular target: T3, GALNS-201 (C4-N6 + I10-N14) (Homo sapiens)
T3 sequence: T1 sequence with P455G, A456I, P458G

[4] = molecular target: T4, GALNS-231 (C4-N6 + E8-N14 + I10-N14) (Homo sapiens)
T4 sequence: T1 sequence with Y203I, A208L, A211I, P455G, A456I, P458G

[5] = molecular target: T5, GALNS-242 (C4-N7 + E8-N11) (Homo sapiens)
T5 sequence: T1 sequence with I148L, Y203I, A205L, A211L

[6] = molecular target: T6, GALNS-315 (E8-N14 + I10-N14) (Homo sapiens)
T6 sequence: T1 sequence with I148A, G150P, Q151N, Y203I, A208L, A211I, P455G, A456I, P458G

[7] = molecular target: T7, I10-N14 modified GALNS (Homo sapiens)
T7 sequence: T1 sequence with I148A, G150P, Q151N, P455G, A456I, P458G

[8] = molecular target: T8, Wild type N-acetylgalactosamine-6-sulfate sulfatase (GALNS) (Homo sapiens)
T8 sequence: T1 sequence with I148A, G150P, Q151N

GALNS enzyme activity in the pellet of COS-7 cells co-transfected with SUMF1, percentage of GALNS without SUMF1 (percent of GALNS (without SUMF1)) [1]: 443
GALNS enzyme activity in the pellet of COS-7 cells co-transfected with SUMF1, percentage of GALNS without SUMF1 (percent of GALNS (without SUMF1)) [2]: 567
GALNS enzyme activity in the pellet of COS-7 cells co-transfected with SUMF1, percentage of GALNS without SUMF1 (percent of GALNS (without SUMF1)) [3]: 545
GALNS enzyme activity in the pellet of COS-7 cells co-transfected with SUMF1, percentage of GALNS without SUMF1 (percent of GALNS (without SUMF1)) [4]: 628
GALNS enzyme activity in the pellet of COS-7 cells co-transfected with SUMF1, percentage of GALNS without SUMF1 (percent of GALNS (without SUMF1)) [5]: 434
GALNS enzyme activity in the pellet of COS-7 cells co-transfected with SUMF1, percentage of GALNS without SUMF1 (percent of GALNS (without SUMF1)) [6]: 563
GALNS enzyme activity in the pellet of COS-7 cells co-transfected with SUMF1, percentage of GALNS without SUMF1 (percent of GALNS (without SUMF1)) [7]: 568
GALNS enzyme activity in the pellet of COS-7 cells co-transfected with SUMF1, percentage of GALNS without SUMF1 (percent of GALNS (without SUMF1)) [8]: 1930
B1: Sulfatase-modifying factor 1 (SUMF1) (enzyme)
chain: SQEAGTGAGAGSLAGSCGCGTPQRPGAHGSSAAAHRYSREANAPGPVPGERQLAHSKMVPIPAGVFTMGTDDPQIKQDGEAPARRVTIDAFYMDAYEVSNTEFEKFVNSTGYLTEAEKFGDSFVFEGMLSEQVKTNIQQAVAAAPWWLPVKGANWRHPEGPDSTILHRPDHPVLHVSWNDAVAYCTWAGKRLPTEAEWEYSCRGGLHNRLFPWGNKLQPKGQHYANIWQGEFPVTNTGEDGFQGTAPVDAFPPNGYGLYNIVGNAWEWTSDWWTVHHSVEETLNPKGPPSGKDRVKKGGSYMCHRSYCYRYRCAARSQNTPDSSASNLGFRCAADRLPTMD
